Results on one substance are retold here after article PMC3200314.

In this assay the target is recombinant neuraminidase ectodomain of A/California/04/2009 (pH1N1) (influenza A virus A/California/04/2009 (H1N1)). The assay can be described thus: SEC.

Consider “recombinant neuraminidase ectodomain of A/California/04/2009 (pH1N1) (domain or fragment)”, for which the stoichiometry N turned out to be 4.
